Data from patent US20220008545A1 (Bicycle, published 2022).
Starred links: 1 amine or outer side, 2 acyl side, 3 side chain; linkers in the order of their positions; H or OH if unused. Positions of bridges follow the written chain, without caps; N, C: chain ends. No end group written: not given here. TBMB = c1c(C[*:1])cc(C[*:3])cc1C[*:2]

Legend:
[1] = target: T1, fibroblast activation protein α (FAPα) (UniProt Q12884 26-760, limits assumed); assay: cell-based or functional assay
T1 sequence (looked up): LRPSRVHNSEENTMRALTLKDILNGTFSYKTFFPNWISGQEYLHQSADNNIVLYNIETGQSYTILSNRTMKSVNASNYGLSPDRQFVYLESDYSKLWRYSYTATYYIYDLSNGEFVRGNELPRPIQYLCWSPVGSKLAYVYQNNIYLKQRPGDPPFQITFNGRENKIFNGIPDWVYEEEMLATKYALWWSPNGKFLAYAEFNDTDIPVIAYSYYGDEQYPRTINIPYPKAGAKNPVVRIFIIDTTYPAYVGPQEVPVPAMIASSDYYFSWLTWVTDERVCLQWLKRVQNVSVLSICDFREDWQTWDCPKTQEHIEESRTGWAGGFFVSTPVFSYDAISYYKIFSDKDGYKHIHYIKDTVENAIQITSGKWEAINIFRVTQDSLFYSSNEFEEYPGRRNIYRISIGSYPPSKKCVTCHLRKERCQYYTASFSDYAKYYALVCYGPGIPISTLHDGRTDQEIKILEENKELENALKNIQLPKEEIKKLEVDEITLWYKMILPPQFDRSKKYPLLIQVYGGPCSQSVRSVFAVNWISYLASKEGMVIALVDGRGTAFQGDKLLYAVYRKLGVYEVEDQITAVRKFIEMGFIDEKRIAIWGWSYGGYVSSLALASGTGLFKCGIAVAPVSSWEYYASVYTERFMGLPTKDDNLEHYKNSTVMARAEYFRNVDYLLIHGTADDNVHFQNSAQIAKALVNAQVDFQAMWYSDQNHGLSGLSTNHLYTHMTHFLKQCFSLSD

[2] = target: T1, fibroblast activation protein α (FAPα); assay: fluorescence polarization FAPα binding assay
Description: FAPα binding was measured using the fluorescence polarization assay methodology described in Yanagisawa et al (1997) J Biol Chem 272(13), 8539-8545. FAPα enzyme inhibition was measured using the assay methodology described in Poplawski et al (2013) J Med Chem 56(9), 3467-3477.

## ACTDCDTDSLIYCA (linker 2-5-13 via TBMB, all L-amino acids) [A-(SEQ ID NO: 2)-A]
[1]
  FAPα Enzyme Inhibition IC50: > 50000 nM
[2]
  Ki: 4520 nM

## ACDDCLISMRDACA (linker 2-5-13 via TBMB, all L-amino acids) [A-(SEQ ID NO: 4)-A]
[1]
  FAPα Enzyme Inhibition IC50: 16700 nM
[2]
  Ki: 1720 nM

B1: A-(SEQ ID NO: 1)-A (peptide)
peptide: ACHSDYLICPYGDFFCA
modifications: linker 2-9-16 via TBMB
notes: all L-amino acids; also called CiHSDYLICiiPYGDFFCiii with N- and C-terminal Ala
[1]
  FAPα Enzyme Inhibition IC50: 1330 nM
[2]
  Ki: 113 nM

B2: A-(SEQ ID NO: 3)-A (peptide)
peptide: ACPPTEYDCLIFFSECA
modifications: linker 2-9-16 via TBMB
notes: all L-amino acids; also called CiPPTEYDCiiLIFFSECiii with N- and C-terminal Ala
[1]
  FAPα Enzyme Inhibition IC50: 5760 nM
[2]
  Ki: 578 nM
